In article PMC11978755:

Tests used:
[1] = target: Recombinant hemagglutinin-esterase-fusion (HEF) ectodomain of influenza C virus C/Johannesburg/1/1966 (influenza C virus (C/Johannesburg/1/1966)) (UniProt P07975); assay: BLI
[2] = target: Recombinant hemagglutinin-esterase-fusion (HEF) ectodomain of influenza D virus D/swine/Oklahoma/1334/2011 (influenza D virus (D/swine/Oklahoma/1334/2011)); assay: BLI

Sequence of UniProt P07975 (P07975 15-630): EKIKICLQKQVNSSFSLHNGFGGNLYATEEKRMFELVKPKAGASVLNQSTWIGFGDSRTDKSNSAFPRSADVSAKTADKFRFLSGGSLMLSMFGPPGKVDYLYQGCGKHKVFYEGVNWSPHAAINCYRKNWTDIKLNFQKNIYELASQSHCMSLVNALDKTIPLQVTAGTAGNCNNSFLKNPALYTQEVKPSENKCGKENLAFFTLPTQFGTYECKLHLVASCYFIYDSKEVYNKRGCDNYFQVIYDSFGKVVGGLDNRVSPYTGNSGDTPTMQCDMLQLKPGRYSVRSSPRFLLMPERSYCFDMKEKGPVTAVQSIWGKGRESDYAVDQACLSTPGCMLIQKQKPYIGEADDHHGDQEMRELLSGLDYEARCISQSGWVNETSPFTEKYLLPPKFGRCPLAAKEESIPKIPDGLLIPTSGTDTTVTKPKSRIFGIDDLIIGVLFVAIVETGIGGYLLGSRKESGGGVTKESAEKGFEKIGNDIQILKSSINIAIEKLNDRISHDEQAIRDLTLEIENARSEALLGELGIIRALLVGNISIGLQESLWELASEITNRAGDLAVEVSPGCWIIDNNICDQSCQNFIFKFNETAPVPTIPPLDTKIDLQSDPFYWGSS

Substance	Kd [1] [µM]	Kd [2] [µM]
CR9114 IgG (human IgG1, wild type) (antibody)	> 100	> 100
CR9114 IgM (pentameric, ten antigen binding sites) (antibody)	> 100	> 100
